Source: patent publication US20260034253A1, “NECTIN-4 MINIPROTEIN CONJUGATES” (Aktis Oncology, Inc., priority 2022, published 2026)
Bridge positions count the residues as written; N and C are the ends. Square brackets hold non-standard residues; d marks the D form. Primed or numbered codes have the meaning given here. Ends that are not written are not given here. * marks the point of attachment. DOTA = O=C(O)CN1CCN(CC(=O)O)CCN(CC(=O)*)CCN(CC(=O)O)CC1; Biotin = O=C1N[C@H]2[C@H](CS[C@H]2CCCCC(=O)*)N1; PEG4′ = polyethylene glycol (PEG4) linker; Lys(Me3) = C[N+](C)(C)CCCC[C@H](N)C(=O)O; PEG4 = NCCOCCOCCOCCOCCC(=O)O

T1: human Nectin-4 (Homo sapiens, UniProt Q96NY8)
T1 sequence (Q96NY8 32-510): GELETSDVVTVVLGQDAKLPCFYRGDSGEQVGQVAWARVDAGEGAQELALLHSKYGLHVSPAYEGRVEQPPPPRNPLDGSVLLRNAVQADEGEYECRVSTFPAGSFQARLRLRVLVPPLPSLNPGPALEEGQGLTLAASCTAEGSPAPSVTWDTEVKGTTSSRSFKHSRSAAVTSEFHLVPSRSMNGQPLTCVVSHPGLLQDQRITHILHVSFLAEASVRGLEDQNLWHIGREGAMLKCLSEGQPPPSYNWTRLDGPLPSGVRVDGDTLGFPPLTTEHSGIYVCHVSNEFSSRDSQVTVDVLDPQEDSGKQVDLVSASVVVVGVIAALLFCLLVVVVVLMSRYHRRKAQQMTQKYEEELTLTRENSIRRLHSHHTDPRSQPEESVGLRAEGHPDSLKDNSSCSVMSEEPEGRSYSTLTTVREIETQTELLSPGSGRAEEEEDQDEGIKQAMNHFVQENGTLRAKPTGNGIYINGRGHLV

T2: mouse Nectin-4 (Mus musculus, UniProt Q8R007)
T2 sequence (Q8R007 31-508): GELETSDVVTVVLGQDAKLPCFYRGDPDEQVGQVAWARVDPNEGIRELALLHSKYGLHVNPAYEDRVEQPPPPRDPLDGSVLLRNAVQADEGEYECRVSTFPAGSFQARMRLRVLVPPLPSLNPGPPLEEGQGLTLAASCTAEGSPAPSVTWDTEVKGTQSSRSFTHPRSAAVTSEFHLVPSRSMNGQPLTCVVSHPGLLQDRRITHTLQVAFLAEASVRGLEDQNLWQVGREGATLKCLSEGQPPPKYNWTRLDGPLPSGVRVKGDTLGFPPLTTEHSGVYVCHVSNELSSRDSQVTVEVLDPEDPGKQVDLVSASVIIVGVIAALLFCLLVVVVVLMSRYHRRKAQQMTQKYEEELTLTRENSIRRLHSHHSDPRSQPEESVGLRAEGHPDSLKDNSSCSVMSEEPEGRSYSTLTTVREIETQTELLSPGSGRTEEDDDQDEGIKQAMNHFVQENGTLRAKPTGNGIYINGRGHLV

T3: Human Nectin-4 (human, UniProt Q96NY8 32-349, limits assumed)
T3 construct: Amine-coupled to the Biacore chip; also called target protein; ligand
T3 sequence: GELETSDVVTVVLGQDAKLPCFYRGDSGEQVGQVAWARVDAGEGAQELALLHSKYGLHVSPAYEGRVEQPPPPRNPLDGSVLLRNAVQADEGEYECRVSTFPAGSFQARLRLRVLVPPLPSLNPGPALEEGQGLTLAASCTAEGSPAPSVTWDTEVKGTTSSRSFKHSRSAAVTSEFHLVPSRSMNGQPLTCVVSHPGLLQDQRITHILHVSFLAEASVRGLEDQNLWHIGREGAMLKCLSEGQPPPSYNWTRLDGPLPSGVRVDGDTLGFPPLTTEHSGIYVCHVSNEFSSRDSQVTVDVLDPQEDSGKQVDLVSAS

T4: Nectin-4 on HT1376 urothelial cancer cells (UniProt Q96NY8 32-510)
T4 construct: whole, on cells; also called HT1376 cells
T4 sequence (looked up): T1 sequence (Q96NY8 32-510)


Key:
human Nectin-4 [1] = target: T1, human Nectin-4; test: Surface plasmon resonance (Biacore T200) binding to human Nectin-4; settings: human Nectin-4, 1:1 binding model, twenty-five degrees Celsius
Protocol: (§1) Peptide binding affinity to the target protein was measured by SPR using a Biacore T200 instrument. The target protein was covalently coupled to a Biacore chip surface using free amine-coupling chemistry (NHS/EDC) and all uncoupled sites were blocked with ethanolamine. Free peptides were flowed over the target protein surface in increasing concentrations to measure association (KA) and dissociation ([…]) to calculate the equilibrium dissociation constant (KD) using an appropriate binding model (see, e.g., Nikolas Stroth, J Biol Methods. 2016; 3 (1)).
(§2) In all figures (FIGS. 1A, 1B, 2A, and 2B), lines on graphs are labeled from top to bottom, beginning with letter “a,” and the corresponding concentration is noted to the right of the figure, next to the letter designating each line.
Surface plasmon resonance (SPR) analyses were performed using Biacore T200 (GE Healthcare). Target protein (“ligand”) was immobilized to a CM5 Series S sensor chip (Cytiva) using amine-coupling chemistry. Running buffer was 0.05% Surfactant P20 in HEPES buffered saline (HBS-P), pH 7.4 (Cytiva). Immobilization was performed at 25° C. Carboxyl groups in each flow cell were activated using a 1:1 mixture of 0.4 M 1-ethyl-3-(3-dimethylaminopropyl)-carbodiimide in water (EDC) and 0.1 M N-hydroxysuccinimide in water (NHS) for 7 minutes. The ligand was prepared in 10 mM Sodium acetate pH 5 (Cytiva). Pulsatile injections were made to target a specific immobilization level. Any remaining amine-reactive esters on the chip surface were blocked with a 7-minute injection of 1 M ethanolamine, pH 8.5. Three 10-second pulses of 50 mM Sodium hydroxide were then made to remove any unbound ligand. Reference cells were modified using amine coupling chemistry, omitting ligand injection.
Increase in signal (RU) is proportional to an increase in binding events between the analyte and ligand surface. The injection was then stopped, and dissociation was measured. The resulting sensorgram has reference surface and blank injection subtracted prior to curve fitting. Measured association (ka, 1/M^s−1) and dissociation (kd, s^−1) were fit to a 1:1 binding model to calculate an equilibrium dissociation constant, KD(M) for each analyte. Equilibrium binding constants (KD) and binding inhibition constants (Ki) estimated from surface plasmon resonance (SPR) or DELFIA® binding assays for exemplary compounds as set forth in Table 2A.
In this example, affinity for mouse Nectin-4 (FIG. 3A) and human Nectin-4 (FIG. 3B) were measured using a 1:1 binding model at twenty-five degrees Celsius. In both of FIGS. 3A and 3B, lines on graphs were labeled from top to bottom, beginning with letter a, and the corresponding concentration was noted to the right of the figure.

mouse Nectin-4 = target: T2, mouse Nectin-4; test: Surface plasmon resonance (Biacore T200) binding to mouse Nectin-4; settings: 1:1 binding model, twenty-five degrees Celsius
Protocol: as §1, §2
Surface plasmon resonance (SPR) analyses were performed using Biacore T200 (GE Healthcare). Target protein (“ligand”) was immobilized to a CM5 Series S sensor chip (Cytiva) using amine-coupling chemistry. Running buffer was 0.05% Surfactant P20 in HEPES buffered saline (HBS-P), pH 7.4 (Cytiva). Immobilization was performed at 25° C. Carboxyl groups in each flow cell were activated using a 1:1 mixture of 0.4 M 1-ethyl-3-(3-dimethylaminopropyl)-carbodiimide in water (EDC) and 0.1 M N-hydroxysuccinimide in water (NHS) for 7 minutes. The ligand was prepared in 10 mM Sodium acetate pH 5 (Cytiva). Pulsatile injections were made to target a specific immobilization level. Any remaining amine-reactive esters on the chip surface were blocked with a 7-minute injection of 1 M ethanolamine, pH 8.5. […]
Increase in signal (RU) is proportional to an increase in binding events between the analyte and ligand surface. The injection was then stopped, and dissociation was measured. […] Measured association (ka, 1/M^s−1) and dissociation (kd, s^−1) were fit to a 1:1 binding model to calculate an equilibrium dissociation constant, KD(M) for each analyte. […]
In this example, affinity for mouse Nectin-4 (FIG. 3A) and human Nectin-4 (FIG. 3B) were measured using a 1:1 binding model at twenty-five degrees Celsius. […]

in vivo = settings: female, athymic nude, mouse, tumor (HT1376 xenograft), total radioactivity
Protocol: In-111 labeling of miniproteins with MES buffer: In-111 was neutralized with 0.5 M MES buffer pH 5.5. This mixture was added to miniproteins prepared at 2 mg/mL in water with an equivalent amount of 0.5 M MES buffer pH 5.5, in a 1.5 mL Eppendorf vial and heated at 37° C. for 60 minutes. After the reaction, an HPLC sample was taken and an equivalent amount of 10 mM DTPA in 0.1 M ammonium acetate pH 5 was added and incubated for at least 15 minutes. The sample was then used for HPLC analysis.
In-111 labeling of miniproteins with Sodium Acetate buffer: In-111 was neutralized with 0.1 M sodium acetate buffer pH 5. […] After the reaction, an HPLC sample was taken and an equivalent amount of 10 mM DTPA in 0.1 M ammonium acetate pH 5 was added and incubated for at least 15 minutes. The sample was then used for HPLC analysis.
Purification of ^111In-miniproteins: Purification was done on two of the crude reaction mixtures mixed with 10 mM DTPA in 0.1 M ammonium acetate pH 5 and incubated for 15 minutes. A 3 kDa 0.5 mL Amicon filter was used for purification and the filter was spun at 15,000 RCF for 9 minutes. Saline was used as a formulation buffer.
Animals: Female athymic nude mice (6-8 weeks of age) were purchased from Charles River Laboratories and housed according to IACUC guidelines with ad libitum feeding. Biodistribution imaging experiments were performed on both null and tumor bearing athymic nude mice. Tumor xenograft models were generated by inoculating mice subcutaneously with 3×10^6 HT1376 cells, in 200 μL (50:50 PBS/Matrigel) in the right shoulder or right flank. Tumors were monitored for 14 days prior to SPECT/CT imaging dates. Mice with tumor volumes between 150 mm^3 and 250 mm^3 were selected for study inclusion and randomized to treatment arms. An excess of 60% of required imaging study mice were inoculated with tumor cells to ensure enough mice with appropriate tumor ranges were generated.
Animal grouping and Treatment: Animals were monitored for body weight bi-weekly and at the time of experimentation, grouped into groups of n=3. Animals were administered test-agents (TAs) that were prepared as described above. Animals received one of two standard injected dose activates and mass dose injections, depending at which site imaging studies were performed. • Site-1: 350 μCi of activity (^111In) at approximately […] peptide per mouse. • Site-2: 30MBq ([…]) of activity (^111In) at approximately 1 nM ([…]) of total peptide per mouse.
Animal imaging: Animals were sedated using isoflurane gas and imaged in a 3 bed hotel using a NanoScan SPECT/CT scanner. Animals were imaged at timepoints between 10 mins and 72 h post-dosing via SPECT scan, followed by CT scans. Details of the image process and analysis are described in Example 11.
Image Processing: Images were generated as SPECT/CT pair with the SPECT reported in units of activity. Namely, the values assigned to the voxels (volume elements) comprising the SPECT images were in units of μCi. SPECT images were co-registered to the CT scan for anatomical reference, resampled to 0.2 mm^3 voxels, masked to remove the CT background, and cropped to a uniform size prior to analysis.
Estimating tissue uptake: Regions of interest (ROIs) were defined using VivoQuant software. The kidneys and bladder were segmented as fixed volume phantoms and registered using the CT for anatomical reference. Two fixed volume spheres were used to create the liver ROI. Spheres were placed at appropriate anatomical locations based on CT and SPECT signal. Group and individual master spreadsheets were generated which included the volume, activity, and concentration (Activity/Volume) at each time point for each ROI generated. Additionally, plots of activity were generated using Matplotlib based python tools to highlight trends in the data.

Human Nectin-4 [2] = target: T3, Human Nectin-4; test: SPR (Biacore), Nectin-4 immobilised
[3] = target: T4, Nectin-4 on HT1376 urothelial cancer …; test: saturation radioligand binding (Lu-177) on HT1376 cells, 4 C, gamma counting
Protocol: Radioligand binding was performed in HT1376 urothelial cancer cells by method of saturation. Cells were seeded at 20,000 cells per well in 96-well format 48 hours prior to assay. Lutetium-177-labeled radioconjugates of C215 and C117 were incubated with cells at 4 deg C. for 1 h at various increasing concentrations of radioligand. At the end of incubation cells were washed three times with PBS and radioactivity was quantified by gamma counting as shown in Table 3.

Molecule	Kd (Human Nectin-4 [2]) [nM]	other results
Ac-CEYDEEFFAGLKRLRGGDICYYIKKKFDKVPDLCIEEILDKLGC-OH (disulfide 1-34, 20-44) [Compound C9]		kd (dissociation) (human Nectin-4 [1]): 0.02271 s⁻¹; kd (dissociation) (mouse Nectin-4): 0.02134 s⁻¹
{DOTA-PEG4}-CEYDEEFFTALKRLRGGDICYYIQAKFQYLPKLCIEEILDNLGCS (disulfide 1-34, 20-44) [Compound C117]		tissue uptake at 4 h (in vivo): 2.29 %ID/g
H-CEDDGEYFAGLQRLYGGDICYYIKLKFPKVPDLCIKEILDKLGC-OH (designed binder, disulfide 1-34, 20-44) [C1]	184	
{Biotin-PEG4′}-CEYDEEFFTALKRLRGGDICEYIQA[Lys(Me3)]FQYLPGLCIEEILDNLGCS-OH (designed binder, disulfide 1-34, 20-44) [C201]	0.68	
{DOTA-PEG4′}-CEYDEEFFTALKRLRGGDICYYIKKKFKKVPKLCIEEILDKLGC-OH (designed binder, disulfide 1-34, 20-44; also: DOTA labeled with lutetium-177) [Lutetium-177-labeled radioconjugate of C215]		Kd [3]: 4.24 nM
H-CEYDEEFFAGLKRLRGGDICYYIKKKFDKVPDLCIKEILDKLGC-OH (designed binder, disulfide 1-34, 20-44) [C3]	9.68	
H-CEDDFQFFADLKRLRGGDICYYIRLKFDKVPDLCIKEILDKLGC-OH (designed binder, disulfide 1-34, 20-44) [C4]	14.4	
CEYDEEFFAGLKRLRGGDICYYIKKKFDKVPDLCIEEILDKLGC-OH (designed binder, disulfide 1-34, 20-44) [C7]	5.5	
